In patent EP4574169A1:
Read-outs that look alike come from different tables or passages of the source.

How the values were obtained:
ACE2 [1] = molecular target: ACE2
ACE2 [2] = assay: ratio of ACE2 binding ELISA to Spike RBD detection ELISA; concentrated supernatant of virus-infected Vero cells
ACE2 [3] = assay: ACE2 binding detection ELISA (ACE2 on solid phase, detection with anti-spikeRBD antibody); concentrated supernatant of virus-infected Vero cells

Substance | ACE2 bind (ACE2 [1]) [ng/mL] | ACE2 bind/ Spike RBD (ACE2 [1]) | ACE2 bind/ Spike RBD (ACE2 [2]) | ACE2 bind (ACE2 [3]) [ng/mL]
Cov2SPPF (polypeptide B: structure of A with further deletion of the furin cleavage site, R683A R685 (from UniProt P0DTC2 14-1273) | 7 | 0.076 | 0.094 | 0.5
Cov2STH (polypeptide C: mu-phosphatase leader, extracellular region (ECD) of the spike protein, PP m (from UniProt P0DTC2 16-1213) | 202 | 2.3 | 6.5 | 19.8
